From PMC3107159, “Resistance to organic hydroperoxides requires ohr and ohrR genes in Sinorhizobium meliloti” (BMC Microbiology, 2011) come the findings set out here.

Where a chain is given by its changes, count along the chain named.

Data set [1] has as its target T1, OhrR (Sinorhizobium meliloti Rm1021 (S. meliloti chromosomal DNA; Rm1021?)) (UniProt Q92MX6).
T1 sequence: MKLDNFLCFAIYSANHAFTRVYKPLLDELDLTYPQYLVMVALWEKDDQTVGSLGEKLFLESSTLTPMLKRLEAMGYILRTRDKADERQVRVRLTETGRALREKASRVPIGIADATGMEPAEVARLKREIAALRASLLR
Nature of the data set: EMSA. The settings on record: 20 mM Tris-HCl pH 8.0, 50 mM KCl, 1 mM EDTA, 50 uM BSA, room temperature 10 min, 20 ul, 20 pmol DNA, 0-100 pmol OhrR, 6% PAGE in Tris-borate, SYBR gold. A general note: Mobility shift assays separate free from complexed probe on a gel.

Data set [2] deals with T2, OhrR (Sinorhizobium meliloti, UniProt Q92RD0).
T2 construct: gene SMc00098; full-length ORF in pET22b+, C-terminal 6His tag kept, E. coli BL21(DE3), heparin column; homodimer
T2 sequence (Q92RD0 1-158): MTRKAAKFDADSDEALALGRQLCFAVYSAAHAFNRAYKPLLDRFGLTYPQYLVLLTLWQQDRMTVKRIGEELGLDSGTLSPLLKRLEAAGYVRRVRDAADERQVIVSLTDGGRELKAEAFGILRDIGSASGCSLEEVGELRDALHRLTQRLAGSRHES
The experiment in a line: non-reducing SDS-PAGE of oxidised protein. It is filed as binding. Particulars: covalent oxidation, reversible intersubunit disulfide dimer; 15 min incubation; 0.55 nM CuOOH as printed; reversed by DTT.

The target of data set [3] is T3, OhrR (Sinorhizobium meliloti Rm1021 (S. …, UniProt Q92MX6 1-138)).
T3 sequence: T1 sequence
The experiment in a line: EMSA; 1 mM DTT; 20 mM Tris-HCl pH 8.0, 50 mM KCl, 1 mM EDTA, 50 uM BSA, room temperature 10 min, 20 ul; 20 pmol DNA, 0-100 pmol OhrR; 6% PAGE in Tris-borate, SYBR gold; 1 mM DTT in Fig 3C. The settings on record: protein: recombinant; tags: C-terminal 6xHis (pET22b+); chain copies: 2; label: none (SYBR gold stain); blunt.

As for “CATGACAGTCTCCTTCCTTGTGGTTGCCGGATTTATATATCGCAAGATTAAATAGCGCGCAAATTAATTTTGCAAATTGCTTTGCCGGCGTGAATTTGCGACAATGACATCAT (double strand) [ohr-ohrR intergenic region 113 bp]”, in data set [1], the binding entry was “binds”.
Regarding `CC(C)(OO)c1ccccc1` [CuOOH], in data set [2], the “non-reducing SDS-PAGE of oxidised protein” value is recorded as “Incubation of the protein with CuOOH or H2O2 led to the formation of a band”.

B1: M1 60 bp (dsDNA)
DNA 1: GGGGGGGAAGCTAGTCACCGCAAATTAATTTTGCGATACTAGAGAGATGCATATGGGGGG
DNA 2: CCCCCCATATGCATCTCTCTAGTATCGCAAAATTAATTTGCGGTGACTAGCTTCCCCCCC
Take B1: in data set [3], the binding result was “binds”.

B2: M2 60 bp (dsDNA)
DNA 1: B1 DNA 1 with A27G, A28C, T32G, G33C
DNA 2: B1 DNA 2 with C28G, A29C, T33G, T34C
Turning to B2, the binding result in data set [3] was “binds”.

B3: Mut2 60 bp (AAA to CCC in motif 1) (dsDNA)
DNA 1: B1 DNA 1 with A22C, A23C, A24C
DNA 2: B1 DNA 2 with T37G, T38G, T39G
As for B3, the binding result in data set [3] is on record as “no binding”.

B4: Mut1 60 bp (GC to AA in motif 1) (dsDNA)
DNA 1: B1 DNA 1 with G20A, C21A
DNA 2: B1 DNA 2 with G40T, C41T
For B4, the binding result in data set [3] is recorded as “no binding”.
